Reference: article PMC7577485, “An intrinsic mechanism for coordinated production of the contact-dependent and contact-independent weapon systems in a soil bacterium” (PLoS Pathogens, 2020)
One block for each molecule: values may come before it.

Legend:
GST-Clp (Clp) = target: T1, GST-Clp (Clp) (Lysobacter enzymogenes, UniProt Q7WZ07); assay: microscale thermophoresis, NT-647-labelled GST-Clp; format: binding; conditions: 25 °C; 10 μM labelled protein (130 mM NaHCO3, 50 mM NaCl); no Hcp; protein concentration above Kd
T1 construct: labelled with NT-647-NHS for MST
T1 sequence (Q7WZ07 1-229): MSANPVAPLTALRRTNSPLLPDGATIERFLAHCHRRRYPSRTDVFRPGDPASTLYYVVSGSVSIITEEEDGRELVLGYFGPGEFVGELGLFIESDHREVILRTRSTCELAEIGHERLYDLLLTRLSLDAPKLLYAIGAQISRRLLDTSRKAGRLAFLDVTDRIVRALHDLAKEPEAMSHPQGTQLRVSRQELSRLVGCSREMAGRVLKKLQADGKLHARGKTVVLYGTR

[1] = target: GST-Clp (Lysobacter enzymogenes) (UniProt Q7WZ07); assay: MST; 10 μM NT-647-NHS labelled GST-Clp or GST in label buffer (130 mM NaHCO3, 50 mM NaCl) titrated with unlabelled Hcp-His6 in PBS; Monolith NT.115, 25°C, 80% MST power, 20% LED power
[2] = system: Clp (Lysobacter enzymogenes OH11); assay: MST; conditions: MST: 0.5 uM FAM-DNA, Clp in PBS, 25 C

Molecule: Nc1nc2c(ncn2[C@@H]2O[C@@H]3COP(=O)(O)O[C@H]4[C@@H](O)[C@H](n5cnc6c(=O)[nH]c(N)nc65)O[C@@H]4COP(=O)(O)O[C@H]3[C@H]2O)c(=O)[nH]1 [c-di-GMP]
Kd (GST-Clp (Clp)): 1500 nM

Kd [1]: 1510 nM
Molecule: Hcp-His6 (natural protein)

Molecule: PA site probe, HSAF operon promoter
Kd [2]: 390 nM
